One molecule from patent publication US20040024191, “Multimerized DBH enhancer domains” (published 2004) can be followed below.

This data set has as its target His6-Phox2a (1-149) (Mus musculus, UniProt Q62066 Q62066:1-149). Nature of the data set: footprint; DNase I footprint. As to conditions: tags: N-terminal His6, pET15b, E. coli BL21(DE3); label: 32P.

His6-Phox2a (1-149), sequence (Q62066 1-149, one chain of several): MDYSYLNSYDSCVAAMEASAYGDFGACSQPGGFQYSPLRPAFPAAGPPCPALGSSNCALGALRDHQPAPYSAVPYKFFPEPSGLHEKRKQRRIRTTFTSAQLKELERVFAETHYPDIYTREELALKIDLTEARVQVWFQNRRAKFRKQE

B1: PBS3 (dsDNA)
DNA 1: GAGGGAAAATTGGATTCCCCG
DNA 2: CGGGGAATCCAATTTTCCCTC
Take B1: the binding result was “binds”.
